The text below walks through data of US20240360227A1.

For assay [1], the target named is Recombinant human his-tagged IGF R extracellular domain protein (human) (UniProt P08069). Briefly: SPR, Ab captured via anti-huIgG Fc, pH 7.4. A general note: Surface plasmon resonance follows binding to a sensor surface in real time, without labels.
Assay [2] has the same target. Briefly: SPR, Ab captured via anti-huIgG Fc, dissociation at pH 6.

B1: VRDN-02041 (antibody, V domains shown)
VH: QVQLQESGPGLVKPSETLSLTCTVSGYSITGGYLWNWIRQPPGKGLEWIGYISYDGTNNYKPSLKDRVTISRDTSKNQFSLKLSSVTAADTAVYYCARYGRVFFDYWGQGTLVTVSS
VL: DIVMTQSPLSLPVTPGEPASISCRSSQSIVHSNGNTHLQWYLQKPGQSPQLLIYKVSNRLYGVPDRFSGSGSGTDFTLKISRVEAEDVGVYYCFQGSHVPWTFGQGTKVEIK
For orientation: Kd means the concentration at which binding is half-saturated. A word on the koff: it is the rate constant with which the complex falls apart. As a reminder, the kon is the second-order rate constant of association. Take B1: in assay [1], the dissociation constant Kd came to 0.795 nM, the off-rate (koff) is 7.59e-05 s⁻¹ and the association rate constant (kon) amounted to 95500 M⁻¹ s⁻¹. In addition, in assay [2], the Kd amounted to 1.16 nM, the off-rate constant (koff) turned out to be 0.000102 s⁻¹ and the kon amounted to 87800 M⁻¹ s⁻¹.

B2: VRDN-02050 (antibody, V domains shown)
VH: QVQLQESGPGLVKPSETLSLTCTVSGYSITGGYLWNWIRQPPGKGLEWIGYISYDGTNNYKPSLKDRVTISRDTSKNQFSLKLSSVTAADTAVYYCARYGRVFFDYWGQGTLVTVSS
VL: DIVMTQSPLSLPVTPGEPASISCRSSQSIVHSNGNTYLQWYLQKPGQSPQLLIYKVSNRLHGVPDRFSGSGSGTDFTLKISRVEAEDVGVYYCFQGSHVPWTFGQGTKVEIK
Take B2: in assay [1], the Kd worked out at 0.603 nM, the koff came out at 6.7e-05 s⁻¹ and the kon worked out at 111000 M⁻¹ s⁻¹. In addition, in assay [2], the Kd worked out at 1.2 nM, the koff worked out at 9.87e-05 s⁻¹ and the on-rate constant (kon) came out at 82000 M⁻¹ s⁻¹.

B3: VRDN-02004 (antibody, V domains shown)
VH: QVQLQESGPGLVKPSETLSLTCTVSGYSHTGGYLWNWIRQPPGKGLEWIGYISYDGTNNYKPSLKDRVTISRDTSKNQFSLKLSSVTAADTAVYYCARYGRVFFDYWGQGTLVTVSS
VL: DIVMTQSPLSLPVTPGEPASISCRSSQSIVHSNGNTYLQWYLQKPGQSPQLLIYKVSNRLYGVPDRFSGSGSGTDFTLKISRVEAEDVGVYYCFQGSHVPWTFGQGTKVEIK
Regarding B3, in assay [1], the dissociation constant Kd was found to be 7.78 nM, the koff was found to be 0.000684 s⁻¹ and the association rate constant (kon) came out at 87800 M⁻¹ s⁻¹. In assay [2], the Kd turned out to be 6.19 nM, the koff was 0.000593 s⁻¹ and the kon came out at 95700 M⁻¹ s⁻¹.

B4: VRDN-02045 (antibody, V domains shown)
VH: QVQLQESGPGLVKPSETLSLTCTVSGYSITGGYLWNWIRQPPGKGLEWIGYISYDGTNNYKPSLKDRVTISRDTSKNQFSLKLSSVTAADTAVYYCARYGRVFFDYWGQGTLVTVSS
VL: DIVMTQSPLSLPVTPGEPASISCRSSQSIVHSNGNTYLQWYLQKPGQSPQLLIYKHSNRLYGVPDRFSGSGSGTDFTLKISRVEAEDVGVYYCFQGSHVPWTFGQGTKVEIK
With B4, in assay [1], the dissociation constant (Kd) was 1.1 nM, the dissociation rate constant (koff) came out at 6.49e-05 s⁻¹ and the kon amounted to 59200 M⁻¹ s⁻¹. In assay [2], the Kd was found to be 1.66 nM, the koff came out at 8.63e-05 s⁻¹ and the on-rate constant (kon) was determined as 51900 M⁻¹ s⁻¹.

B5: VRDN-02048 (antibody, V domains shown)
VH: QVQLQESGPGLVKPSETLSLTCTVSGYSITGGYLWNWIRQPPGKGLEWIGYISYDGTNNYKPSLKDRVTISRDTSKNQFSLKLSSVTAADTAVYYCARYGRVFFDYWGQGTLVTVSS
VL: DIVMTQSPLSLPVTPGEPASISCRSSQSIVHSNGNTYLQWYLQKPGQSPQLLIYKVSNHLYGVPDRFSGSGSGTDFTLKISRVEAEDVGVYYCFQGSHVPWTFGQGTKVEIK
As for B5, in assay [1], the equilibrium dissociation constant (Kd) is 0.55 nM, the dissociation rate constant (koff) came out at 4.17e-05 s⁻¹ and the association rate constant (kon) worked out at 75700 M⁻¹ s⁻¹. In addition, in assay [2], the dissociation constant (Kd) is 1.03 nM, the koff is 8.1e-05 s⁻¹ and the kon stood at 78800 M⁻¹ s⁻¹.

B6: VRDN-02043 (antibody, V domains shown)
VH: QVQLQESGPGLVKPSETLSLTCTVSGYSITGGYLWNWIRQPPGKGLEWIGYISYDGTNNYKPSLKDRVTISRDTSKNQFSLKLSSVTAADTAVYYCARYGRVFFDYWGQGTLVTVSS
VL: DIVMTQSPLSLPVTPGEPASISCRSSQSIVHSNGNTYLHWYLQKPGQSPQLLIYKVSNRLYGVPDRFSGSGSGTDFTLKISRVEAEDVGVYYCFQGSHVPWTFGQGTKVEIK
On to B6, for which, in assay [1], the Kd was found to be 0.746 nM, the koff amounted to 6.22e-05 s⁻¹ and the on-rate (kon) was determined as 83400 M⁻¹ s⁻¹. Further, in assay [2], the Kd was found to be 1.13 nM, the off-rate (koff) turned out to be 9.08e-05 s⁻¹ and the on-rate (kon) was 80400 M⁻¹ s⁻¹.

B7: VRDN-02042 (antibody, V domains shown)
VH: QVQLQESGPGLVKPSETLSLTCTVSGYSITGGYLWNWIRQPPGKGLEWIGYISYDGTNNYKPSLKDRVTISRDTSKNQFSLKLSSVTAADTAVYYCARYGRVFFDYWGQGTLVTVSS
VL: DIVMTQSPLSLPVTPGEPASISCRSSQSIVHSNGNTYHQWYLQKPGQSPQLLIYKVSNRLYGVPDRFSGSGSGTDFTLKISRVEAEDVGVYYCFQGSHVPWTFGQGTKVEIK
With B7, in assay [1], the dissociation constant (Kd) is 0.704 nM, the koff came to 7.31e-05 s⁻¹ and the on-rate constant (kon) amounted to 104000 M⁻¹ s⁻¹. In addition, in assay [2], the equilibrium dissociation constant (Kd) was 1.08 nM, the koff came out at 0.000101 s⁻¹ and the kon was 94100 M⁻¹ s⁻¹.

B8: VRDN-02049 (antibody, V domains shown)
VH: QVQLQESGPGLVKPSETLSLTCTVSGYSITGGYLWNWIRQPPGKGLEWIGYISYDGTNNYKPSLKDRVTISRDTSKNQFSLKLSSVTAADTAVYYCARYGRVFFDYWGQGTLVTVSS
VL: DIVMTQSPLSLPVTPGEPASISCRSSQSIVHSNGNTYLQWYLQKPGQSPQLLIYKVSNRHYGVPDRFSGSGSGTDFTLKISRVEAEDVGVYYCFQGSHVPWTFGQGTKVEIK
Consider B8, for which, in assay [1], the dissociation constant (Kd) is 0.946 nM, the off-rate constant (koff) turned out to be 7.92e-05 s⁻¹ and the kon came to 83700 M⁻¹ s⁻¹. In assay [2], the equilibrium dissociation constant (Kd) was 1.15 nM, the off-rate (koff) turned out to be 9.15e-05 s⁻¹ and the on-rate (kon) worked out at 79500 M⁻¹ s⁻¹.

B9: VRDN-02047 (antibody, V domains shown)
VH: QVQLQESGPGLVKPSETLSLTCTVSGYSITGGYLWNWIRQPPGKGLEWIGYISYDGTNNYKPSLKDRVTISRDTSKNQFSLKLSSVTAADTAVYYCARYGRVFFDYWGQGTLVTVSS
VL: DIVMTQSPLSLPVTPGEPASISCRSSQSIVHSNGNTYLQWYLQKPGQSPQLLIYKVSHRLYGVPDRFSGSGSGTDFTLKISRVEAEDVGVYYCFQGSHVPWTFGQGTKVEIK
Regarding B9, in assay [1], the Kd was 0.622 nM, the koff is 5.34e-05 s⁻¹ and the kon was 85900 M⁻¹ s⁻¹. Further, in assay [2], the Kd was 1.48 nM, the koff was 9.84e-05 s⁻¹ and the on-rate constant (kon) was found to be 66600 M⁻¹ s⁻¹.

B10: VRDN-02046 (antibody, V domains shown)
VH: QVQLQESGPGLVKPSETLSLTCTVSGYSITGGYLWNWIRQPPGKGLEWIGYISYDGTNNYKPSLKDRVTISRDTSKNQFSLKLSSVTAADTAVYYCARYGRVFFDYWGQGTLVTVSS
VL: DIVMTQSPLSLPVTPGEPASISCRSSQSIVHSNGNTYLQWYLQKPGQSPQLLIYKVHNRLYGVPDRFSGSGSGTDFTLKISRVEAEDVGVYYCFQGSHVPWTFGQGTKVEIK
B10: in assay [1], the Kd was 0.569 nM, the koff came to 5.23e-05 s⁻¹ and the kon was 92000 M⁻¹ s⁻¹. Besides, in assay [2], the dissociation constant Kd was 1.29 nM, the off-rate constant (koff) is 0.000103 s⁻¹ and the kon came out at 79900 M⁻¹ s⁻¹.

B11: VRDN-02044 (antibody, V domains shown)
VH: QVQLQESGPGLVKPSETLSLTCTVSGYSITGGYLWNWIRQPPGKGLEWIGYISYDGTNNYKPSLKDRVTISRDTSKNQFSLKLSSVTAADTAVYYCARYGRVFFDYWGQGTLVTVSS
VL: DIVMTQSPLSLPVTPGEPASISCRSSQSIVHSNGNTYLQWYLQKPGQSPQLLIYHVSNRLYGVPDRFSGSGSGTDFTLKISRVEAEDVGVYYCFQGSHVPWTFGQGTKVEIK
B11: in assay [1], the Kd turned out to be 0.551 nM, the off-rate constant (koff) worked out at 4.69e-05 s⁻¹ and the on-rate (kon) came out at 85200 M⁻¹ s⁻¹. Besides, in assay [2], the Kd was determined as 0.759 nM, the dissociation rate constant (koff) came out at 6.27e-05 s⁻¹ and the kon stood at 82600 M⁻¹ s⁻¹.
